In patent US20050232926A1, “Antibodies specific for cancer associated antigen SM5-1 and uses thereof” (Oncomax Acquisition Corp., priority 2003, published 2005):
One block for each molecule: values may come before it.

Legend:
[1] = system: human hepatocellular carcinoma cell line QYC; experiment: Complement-dependent cytotoxicity (CDC), LDH release; type: cell-based; details: 5% normal human sera, 3-4 h, FIG. 8
Text: Antigen recognized by anti-SM5-1 is highly expressed on the surface of human hepatocellular carcinoma cell line QYC. With human complement in the culture fluid, the target cells bound with chimeric antibodies will be lysed by so-called complement dependent cell mediated cytotoxicity (CDC). When there is an over dose of complement (provided by fresh normal human sera), in a certain range, the degree of lysis is related to antibody concentration. Degree of lysis can be determined by detecting lactate dehydrogenase (LDH) released by the lysed cells.
Cell line for bioactivity determination is QYC, which is without any pathogen. […]
QYC cells in the logarithmic growth stage were taken and counted. […]
50 ul supernatant was transferred from each well to corresponding wells in a second 96-well plate, and 50 ul well-mixed LDH test kit reagent was added into the well of the second plate. […] OD was measured with 490 nm as detecting light wave length, and 630 nm as reference wave length.
The results were analyzed with specific analysis software Select2.2 to make auto analysis and calculate standard curve line: horizontal axis stands for the concentration of the standard product and samples, vertical axis stands for optical adsorption, recovery equation as 4-parameter equation, resulting in a “s” curve line. Half effective dosage (ED50) of the standard product and samples were calculated. […]

[2] = system: QYC cells; experiment: Antibody-dependent cell mediated cytotoxicity (ADCC); type: cell-based, human; details: PBL effector to target ratio 20:1, 7 h, FIG. 7
Protocol: Venous blood was taken sterilely from healthy donor and put into sterile 15 ml centrifuge tube containing 20 U/ml heparin. The solution was carefully mixed and equal volume of sterilized PBS was added to dilute the blood.
In a 15 ml centrifuge tube, 6 ml room temperature pre-warmed 100% lymphocytes isolation fluid (obtained from CACS, Cellular Biology Institute) was added. Along the tube wall of the tilted tube, 6 ml diluted anti-coagulation peripheral blood was added slowly into the tube without damaging the interface.
The tube was centrifuged at 20° C., 800 g for 30 min with brake turned off. After the centrifuge, three layers were formed. The three layers (from above to the bottom) were blood plasma layer, cell separation liquid layer, red and granular cell layer. A white frosted glass-like layer between the plasma layer and cell separation liquid layer was the layer containing lymphocytes and mononuclear cells. This white layer was taken out using a pipette and put into another 15 ml sterile centrifuge tube. PBS was added into the centrifuge tube to dilute the PBL suspension and then centrifuged at 200 g for 5 min. The pellet was washed 2 times with PBS. […]
QYC cells at the logistically growing stage were taken out from incubator. […] Cells were counted, and the concentration was adjusted to 3×10^5/ml. […]
Cytotoxicity Detection Kit by Roche's Corporation was used. […] OD was read at 490 nm.

[3] = biological target: SM5-1 antigen; experiment: Affinity determination with BIAcore; type: binding, human

Kd [3]: 3.78 nM
B1: chSM5-1: mouse-human chimeric antibody with mSM5-1 variable regions (SEQ ID NO:3, 4) and human constant regions (antibody, V domains shown)
VH: EVQLQQSGPELVKPGASVKMSCKASGYTFTSYVMHWVKQKPGQGLDWIGYIVPYNDGTKYNEKFKGKATLTSDKSSSTAYMELSRLTSEDSAVYYCVYGSRYDWYLDVWGAGTTVTVSS
VL: NIMMTQSPSSLAVSAGEKVTMSCKSSQSVLYSSNQKNYLAWYQQKPGQSPKLLIYWASTRESGVPDRFTGSGSGTDFTLTISSVQAEDLAVYYCHQYFSSYTFGGGTKLEIKR
modifications: human constant regions; Mus Musculus
anti-neoplasm effect via CDC [1]: induced the apoptosis and inhibited the growth of tumor cells through the CDC pathway
anti-neoplasm effect via ADCC [2]: induced the apoptosis and inhibit the growth of tumor cells through ADCC pathway

Kd [3]: 9.31 nM
B2: humanized anti-SM5-1 antibody (ReSM5-1) (antibody, V domains shown)
VH: QVQLVQSGGGVVQPGRSLRLSCKASGYTFTSYVMHWVRQAPGKGLEWIGYIVPYNDGTKYNEKFKGRFTISSDKSKSTAFLQMDSLRPEDTAVYYCARGSRYDWYLDYWGQGTPVTVSS
VL: NIMMTQSPSSLSASVGDRVTITCKSSQSVLYSSNQKNYLAWYQQTPGKAPKLLIYWASTRESGVPSRFSGSGSGTDYTFTISSLQPEDIATYYCHQYFSSYTFGQGTKLQITR
anti-neoplasm effect via CDC [1]: induced the apoptosis and inhibited the growth of tumor cells through the CDC pathway
anti-neoplasm effect via ADCC [2]: induced the apoptosis and inhibit the growth of tumor cells through ADCC pathway
